Assay results taken from patent US20160304625A1.

Columns and labels:
[1] = molecular target: mIgM proximal domain peptide conjugated to keyhole limpet hemocyanin (human); experiment: competition ELISA on KLH-mIgM-PD, competitor unlabeled mAb 4
[2] = molecular target: mIgM proximal domain peptide conjugated to keyhole limpet hemocyanin (human); experiment: competition ELISA on KLH-mIgM-PD, competitor unlabeled mAb 1
[3] = molecular target: mIgM proximal domain peptide conjugated to keyhole limpet hemocyanin (human); experiment: competition ELISA on mIgM-PD-KLH, competitor unlabeled mAb 4
[4] = molecular target: mIgM proximal domain peptide conjugated to keyhole limpet hemocyanin (human); experiment: competition ELISA on KLH-mIgM-PD, competitor unlabeled mAb 3
[5] = molecular target: mIgM proximal domain peptide conjugated to keyhole limpet hemocyanin (human); experiment: ELISA, KLH-PDm
[6] = molecular target: mIgM proximal domain peptide conjugated to keyhole limpet hemocyanin (human); experiment: competition ELISA on KLH-mIgM-PD, competitor unlabeled mAb 2
[7] = molecular target: mIgM proximal domain peptide conjugated to keyhole limpet hemocyanin (human); experiment: competition ELISA on mIgM-PD-KLH, competitor unlabeled mAb 3
[8] = molecular target: mIgM proximal domain peptide conjugated to keyhole limpet hemocyanin (human); experiment: ELISA direct binding, mIgM-PD-KLH
[9] = molecular target: mIgM proximal domain peptide conjugated to keyhole limpet hemocyanin (human); experiment: competition ELISA on mIgM-PD-KLH, competitor unlabeled mAb 1
[10] = molecular target: mIgM proximal domain peptide conjugated to keyhole limpet hemocyanin (human); experiment: competition ELISA on mIgM-PD-KLH, competitor unlabeled mAb 2

B1: monoclonal antibody mAb4-2b (antibody, mouse IgG1, V domains shown)
VH: EVQLEESGAELVKPGASLKLSCKASGYTFTSYWMNWVKQRPGQGLEWIGIIHPNSGSTNYNEKFKTKATLTVDKSSSTAYMQLSSLTSEDSAVYYCARTRGNYGMDYWGQGTSVTVSS
VL: DIVMTQSHKFMSTSVGDRVSITCKASQDVSTAVAWYQQKPGQSPTLLIYSASYRNTGVPDRFTGSGSGTDFTFTISSVQAEDLAVYYCQQHFSIPPLTFGAGTKLELKR
B1 was tested. Which mAb-HRP binding after blocking by unlabeled mAb [1] did it give?
The mAb-HRP binding after blocking by unlabeled mAb was 14.

What about the mAb-HRP binding after blocking by unlabeled mAb [2] of the same binder?
The mAb-HRP binding after blocking by unlabeled mAb was 74.

And the mAb-HRP binding after blocking by unlabeled mAb [3]?
Its mAb-HRP binding after blocking by unlabeled mAb is 9.

What about the mAb-HRP binding after blocking by unlabeled mAb [4] of the same binder?
The mAb-HRP binding after blocking by unlabeled mAb was 72.

And the ELISA reading [5]?
The ELISA reading was 0.9.

And the mAb-HRP binding after blocking by unlabeled mAb [6]?
The mAb-HRP binding after blocking by unlabeled mAb was 68.

What about the mAb-HRP binding after blocking by unlabeled mAb [7] of the same binder?
Its mAb-HRP binding after blocking by unlabeled mAb is 62.

And the ELISA reading [8]?
The ELISA reading was 0.5.

What about the mAb-HRP binding after blocking by unlabeled mAb [9] of the same binder?
The mAb-HRP binding after blocking by unlabeled mAb was 52.

And the mAb-HRP binding after blocking by unlabeled mAb [10]?
Its mAb-HRP binding after blocking by unlabeled mAb is 71.
